In patent US20260265383A1 (FUSION ANTIBODIES, published 2026):
Numbering of substitutions follows the chain as printed.

B1: RAMP2-rIgG-k1-1A7#1 (antibody, V domains shown)
VH: QSVEESGGDLVKPEGSLTLTCTASGFSFSISYWICWVRQTPGKGLEWIGCIYGGSSGRPYYASWAKGRFTISKTSSTTVTLQMTSLTAADTAAYFCATTAYGGYGYGTWGPGTLVTVSS
VL: DGVMTQTPSSVSAAVGSTVTISCQASQSVFSNNYLSWYQQKPGQPPKLLIYTASSLASGVPSRFKGSGSGTQFTLTISDLECADAATYYCQCTYGKSGTDTYLNAFGGGTEVVVK
notes: tested as recombinant rabbit IgG-kappa1 made in CHOEBNALT85-1E9 cells (supernatant); also called rlgG-k1-1A7
B2: RAMP3-rIgG-k1-6B8 (antibody, V domains shown)
VH: QSLEESGGGLVKPEGSLTLTCTASGFFFDRSYWICWVRQTPAKGLEWIACIVVSSGATYYASWAKGRLTLSKTSSTTVTLQMTSLTAADTAIYFCARDSSSTSGVEFNLWGPGTLVTVSS
VL: DVMMTQTPASVSEPVGGTVTIKCQASQNIGNNLAWYQQKPGQPPKLLIYLTSTLASGVPSRFKGSRSGTEFTLTISDLECADAATYFCQSYLYTTYAFGGGTEVVVK
notes: tested as recombinant rabbit IgG-kappa1; also called rlgG-k1-6B8; 6B8_#24
B3: RAMP3-rIgG-k1-6D8 (antibody, V domains shown)
VH: QSVEESGGDLVRPEGSLTLTCTASGFSLSSSYWICWVRQAPGKGLEWIACIVSNTGTTYYASWAKGRLTLSKTSSTTVTLQMTSLTAADTATYFCARDNNSKSGVEFNLWGPGTLVTVSS
VL: B2 VL with M3V, Q42H, T51A, F87Y
notes: tested as recombinant rabbit IgG-kappa1; also called rlgG-k1-6D8; 6D8_#28
B4: RAMP3-rIgG-k1-6C2 (antibody, V domains shown)
VH: QEQLEESEGGLFKPTDTLTLTCTVSGFSLSVYALTWVRQAPGNGLEWIGAIGNSGNTYYASWAKSRSTITRNTNENTVTLKMTSLTAADTATYFCARGYVRINVWGPGTLVTVSS
VL: DGVMTQTPSSVSAAVGGTVTISCQSSQSVYKNNYLSWFQQKPGQPPKLLIYEISKLESGVPDRFSGSGSGTQFTLTISGVQCDDAATYYCLGGYDDDSDTSFGGGTEVVVK
notes: tested as recombinant rabbit IgG-kappa1; also called rlgG-k1-6C2; 6C2_#25
B5: RAMP3-rIgG-k1-4C10 (antibody, V domains shown)
VH: QEQLEESGGGLVKPTDTLTLTCTVSGFSLSTNSIFWVRQAPGNGLEWIGAISYAGGTAYASWAKSRSTITRNTNLNTVTLKMTSLTAADTATYFCGRGYVGYSRSKGDIWGPGTLVTVSS
VL: DGVMTQTPSSTSAAVGSTVTISCQSTQSIINNNWLAWYQQKPGHSPKLLIYDASTLASGVPSRFSGSGSGTQFTLTISDLECDDAATYYCAARYSGDIYTFGGGTEVVVR
notes: tested as recombinant rabbit IgG-kappa1; also called rlgG-k1-4C10; 4C10_#19
B6: RAMP3-rIgG-k1-5H9 (antibody, V domains shown)
VH: QSLEESEGGLFKPTDTLTVTCIVSGLSLSRNAMSWVRQAPGSGLEWIGVIVTYGDTYYASWAKSRSTITRNTNENTVTLKMTSLTAADTATYFCIGGLDIWGPGTLVTVSS
VL: DVVMTQTPASVEAAVGGTVTIKCQATESIASWLAWYQQKAGQPPKLLIYEASKLESGVPSRFKGSGSGTEFTLTISDLECADAATYYCQSYLYSSSNTYGNSFGGGTEVVVK
notes: tested as recombinant rabbit IgG-kappa1; also called rlgG-k1-5H9; H9_#22
B7: RAMP3-rIgG-k1-3A12 (antibody, V domains shown)
VH: QEQLEESEGGLFKPTDTLTLTCTVSGFSLSSYGVSWVRQAPGNGLEYIGFIGKTGSAYYASWAKSRSTITRNTTLNTVTLKMTSLTVADTATYFCARLGPGSIYYFDIWGPGTLVTVSS
VL: DPMLTQTPSSKSVPVGGTVTINCQSSESVYDNNWLAWFQQKPGQPPKRLIYSASTLASGVSSRFKGSGSGTQFTLTISDVQCDDAATYYCTGYKSRTTDEIAFGGGTEVVVK
notes: tested as recombinant rabbit IgG-kappa1; also called rlgG-k1-3A12; 3A12_#17
B8: RAMP3-rIgG-k1-3A5 (antibody, V domains shown)
VH: QSLEESGGGLVQPEGTLTLTCTVSGFSFSSNYWICWVRQAPGKGLEWIACIVTNSGTTYYTSWAKGRLTLSKTSSTTVTLQMTSLTAADTATYFCARDNNSVTGVEFNLWGPGTLVTVSS
VL: DVVMTQTPASVSAAVGATVTIKCQASETIGNNLAWYQQKPGQPPKVLMFLASTLASGVPSRFKGSRSGTEYTLTISGVQCDDAATYYCQSYLGTSYAFGGGTEVVVK
notes: tested as recombinant rabbit IgG-kappa1; also called rlgG-k1-3A5; 3A5_#15
B9: RAMP2-rIgG-k1-2A8 (antibody, V domains shown)
VH: QSLEESGGGLVQPEGSLTLTCTASGFDLSRYYYIFWVRQAPGKGLEWIGCIYIGGNIITYYASWAKGRFTISKTSSPAVTLQMTSLTVADTATYFCARGTGYGGYGDVSLWGPGTLVTVSS
VL: APVLTHTAASVSEPVGGIVTINCQASQSIGSNLAWYQQKSGQPPKLLIYDASNLVSGVPSRFKGSRSGTEYTLTISDLECADAGTYYCQGYYYGSSTSYNLVSFGGGTEVVVK
notes: tested as recombinant rabbit IgG-kappa1; also called rlgG-k1-2A8; 2A8_#12
B10: RAMP2-rIgG-k1-1H6#4 (antibody, V domains shown)
VH: QEHLVESEGGLFKPTDTLTLTCTVSGFSLSSYGVSWVRQAPGKGLEWIGVIGATGSAYYANWAKSRSTITRNTNLNTVTLKVTSLTAADTATYFCARDDVLTGMDLWGPGTLVTVSS
VL: APVLTQTPASVEAAVGGTVTIKCQASQSINSWLSWYQQKPGQPPKLLIYQASKLASGVPSRFKGSGSGTEYTLTISDLKCADAATYYCQSYDYASNSGYVSNPFGGGTEVVVK
notes: tested as recombinant rabbit IgG-kappa1; also called rlgG-k1-1H6
B11: RAMP2-rIgG-k1-1H7 (antibody, V domains shown)
VH: B1 VH with V3L
VL: AAVLTQTPSSTSGPVGGTVTIKCQASQNIGSFLSWYQQKPGQPPKLLIYSASSLATGVPSRFSGSGSGTQFTLTISGVQCDDAATYYCLGFYAYRSDDGTAFGGGTEVVVK
notes: tested as recombinant rabbit IgG-kappa1; also called rlgG-k1-1H7; 1H7_#5
B12: RAMP2-rIgG-k1-2A6 (antibody, V domains shown)
VH: QSVEESGGDLVKPGASLTLTCTASGFSFSSRYYMCWVRQAPGKGLEWIGCIFGGSSGNTHYASWAKGRFTIAKTSSTTVTLRMTSLTAADTATYSCVRSDAWGVNLWGPGTLVTVSS
VL: DVVMTQTPASVEAAVGGTVTIKCQASQSISNLLAWYQQKPGQPPKRLIYGASNLESGVPSRFKGSGSGTQFTLTISDLECADAATYYCQCSYDGSSPNAFGGGTEVVVE
notes: tested as recombinant rabbit IgG-kappa1; also called rlgG-k1-2A6; 2A6_#9
B13: RAMP2-rIgG-k1-2H3 (antibody, V domains shown)
VH: B12 VH with G49A, G57D, T59S, H60Y, S63R, A72S, S95F
VL: AAVMTQTPSPVSGVVGGTVTIKCQASQSIYGYFSWYQQKPGQPPKLLIYSASDLASGVPSRFKGSGSGTQFTLTISDLECADAATYYCQCSYDGSSPNAFGGGTEVVVK
notes: tested as recombinant rabbit IgG-kappa1; also called rlgG-k1-2H3; 2H3_#13
B14: RAMP2-rIgG-k1-1A10 (antibody, V domains shown)
VH: QSLEESGGGLVQPEGSLTLTCTASGFSFSSSYYMCWVRQAPGKGLEWIGSIYTLSGSTAYASWAKGRFTISKTSSTTVTLQMTSLTAADTAMYFCARDSDGWGVSFNLWGPGTLVTVSS
VL: AAVMTQTPSSLSAAVGGTVTIKCQASQSIRNQVSWYQQKPGQRPKLLIYRASTLESGVPSRFKGSGSGTDFTLTISDLECADAATYYCQCTYGSSSSNRYGNTFGGGTEVAVK
notes: tested as recombinant rabbit IgG-kappa1; also called rlgG-k1-1A10; 1A10_#7

Target: T1, RAMP2 Scr V1
T1 construct: it is not part of the secreted protein; Expressed in HEK cells
T1 chain: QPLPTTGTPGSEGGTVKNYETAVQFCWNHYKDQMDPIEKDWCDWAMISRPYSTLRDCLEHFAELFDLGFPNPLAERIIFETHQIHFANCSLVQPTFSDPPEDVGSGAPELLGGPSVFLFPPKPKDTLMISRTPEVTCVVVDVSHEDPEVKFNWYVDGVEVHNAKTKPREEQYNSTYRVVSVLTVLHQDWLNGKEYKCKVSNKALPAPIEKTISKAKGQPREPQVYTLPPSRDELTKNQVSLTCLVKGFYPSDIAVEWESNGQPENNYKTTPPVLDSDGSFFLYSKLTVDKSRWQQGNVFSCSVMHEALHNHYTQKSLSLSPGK
Assay: ELISA, single-clone supernatants on RAMP2 Scr
Description: (§1) 8 specific ELISA positive pools against both targets were selected for single clone isolation. Single clones were selected in LB-Amp solid medium, colonies were grown in liquid medium o/n on shaker at 37° C. in 96-well microtiter plates (2-4 96-well plates per target), plasmid DNA was isolated and transfected into CHOEBNALT85-1E9 cells for antibody transient production. 48-72 hours after transfection supernatants were analyzed by ELISA on RAMP2 Scr or RAMP3 Scr respectively.
B1: binds.

Target: T2, RAMP3_Scr_V1
T2 construct: Expressed in HEK cells
T2 chain: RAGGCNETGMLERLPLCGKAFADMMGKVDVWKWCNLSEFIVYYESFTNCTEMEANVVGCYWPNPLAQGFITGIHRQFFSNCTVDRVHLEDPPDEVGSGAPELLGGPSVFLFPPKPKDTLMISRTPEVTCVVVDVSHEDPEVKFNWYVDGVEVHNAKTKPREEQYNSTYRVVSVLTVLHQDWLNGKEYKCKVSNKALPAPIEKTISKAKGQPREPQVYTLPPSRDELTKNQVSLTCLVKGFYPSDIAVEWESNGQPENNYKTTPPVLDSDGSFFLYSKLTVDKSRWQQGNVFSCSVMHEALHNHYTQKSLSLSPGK
Assay: ELISA, single-clone supernatants on RAMP3 Scr
Description: as §1
B2: binds. B3: binds. B4: binds. B5: binds. B6: binds.

Target: T2, RAMP3_Scr_V1
Assay: ELISA, 24-well supernatants on coated RAMP3 Scr
Description: (§2) Amplified VH and VL were purified and altogether 20 cloning reactions per target were performed for cloning into rabbit IgG-κ1 encoding two-cassette expression plasmid by using Ligase Independent Cloning (LIC) method. Resulting antibody library pools were grown in E. coli strain DH5a. Plasmid DNA was purified and transfected into CHOEBNALT85-1E9 cells for transient production of antibodies in serum-free media for 48 hours in 24-well format. Cell culture supernatants were tested for RAMP2 Scr and RAMP2 ECD or RAMP3 Scr binding in ELISA (wells coated at 1 μg/ml in PBS).
B7: binds. B8: binds.

Target: T1, RAMP2 Scr V1
Assay: ELISA, 24-well supernatants on coated antigen
Description: as §2
B9: binds. B10: binds. B11: binds. B12: binds. B13: binds. B14: binds.

Target: T3, RAMP2 IMM ECD V1
T3 construct: The entry includes a signal peptide whose residues cannot be read (drawing); The text says 'RAMP2 ECD'; also called RAMP2 ECD
T3 chain: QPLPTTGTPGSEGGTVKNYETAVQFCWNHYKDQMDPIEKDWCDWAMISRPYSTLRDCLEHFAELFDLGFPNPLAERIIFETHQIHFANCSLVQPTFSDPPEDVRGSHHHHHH
Assay: direct ELISA, 6-well supernatants at 8-500 ng/ml on RAMP2 ECD coated at 1.0 µg/ml
Description: Immuno modules (Thermo Scientific™) were coated with RAMP2 ECD or RAMP3 Scr, 1.0 μg/ml in PBS, 100 μl/well, 20 h at 4° C. Supernatants of anti-RAMP2 and anti-RAMP3 rabbit IgG-κ1 antibody clones were transfered into wells at different concentrations (8-500 ng/ml; 100 μL/well, in PBS-0.05% Tween 20-1% BSA) and the plates were incubated for 60 min. on a shaker at room temperature (RT). Goat anti-rabbit-IgG HRP conjugate (Invitrogen; 1:20 000 in 1% BSA-PBS-0.05% Tween 20; 100 μL/well) was used as secondary reagent in direct ELISA (incubation time 60 min. at RT). To visualize, TMB substrate was added for 10 min. and stopped with 0.5 M H₂SO₄. Between every incubation step the wells were washed 4 times with PBS-Tween 20.
With B9 the titer was under 8 ng/mL. B10 showed a titer of under 8 ng/mL. With B1 the titer was under 8 ng/mL. With B11 the titer was under 8 ng/mL. For B12, the titer was under 8 ng/mL. With B13 the titer was under 8 ng/mL. B14 gave a titer of under 8 ng/mL.
